The Ki is a dissociation constant, usually derived from enzyme kinetics or from competition with a known ligand. Read a low Ki as a stronger hold on the target.

Changes are numbered by the printed parent chain. Numbered stars: 1 amine (or outer) side, 2 acyl side, 3 side chain; on linkers, the order of the positions; unused ones are H or OH. Square brackets hold non-standard residues; d marks the D form. Side chains are listed from the residue outwards. Ends that are not written are not given here. * marks the point of attachment. C20 diacid = O=C(O)CCCCCCCCCCCCCCCCCCC(=O)*; γGlu = O=C(O)[C@H](CCC(=O)[*:2])N[*:1]; αMeL = CC(C)C[C@](C)(N)C(=O)O; AEEA = NCCOCCOCC(=O)O; Aib = CC(C)(N)C(=O)O

Ki data for 13 molecules are collected here from patent US20200024322A1 (Eli Lilly, published 2020).

To fix the notation:
T1: human GIP receptor (human, UniProt P48546 22-466)
T1 construct: whole, on cells; Used as crude membranes of stably transfected CHO cells; also called hGIPR
T1 sequence (looked up): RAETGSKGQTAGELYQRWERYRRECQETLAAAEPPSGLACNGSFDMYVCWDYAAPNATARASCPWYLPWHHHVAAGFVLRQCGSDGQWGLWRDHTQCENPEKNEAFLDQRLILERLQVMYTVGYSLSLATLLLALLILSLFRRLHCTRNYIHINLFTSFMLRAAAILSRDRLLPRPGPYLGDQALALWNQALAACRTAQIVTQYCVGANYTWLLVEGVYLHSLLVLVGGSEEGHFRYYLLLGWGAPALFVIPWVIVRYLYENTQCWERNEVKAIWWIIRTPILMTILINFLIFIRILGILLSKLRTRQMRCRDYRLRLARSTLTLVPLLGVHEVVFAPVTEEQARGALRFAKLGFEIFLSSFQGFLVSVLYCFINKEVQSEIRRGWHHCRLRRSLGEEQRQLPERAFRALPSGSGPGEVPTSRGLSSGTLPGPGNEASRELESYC

B1: Example 52 (peptide)
peptide: YXEGTFTSDYSIXLDSKAQXAFIEYLIEGGPSSGAPPPS
modifications: Aib2; αMeL13; K17((2-[2-(2-Amino-ethoxy)-ethoxy]-acetyl)2-(γ-Glu)-CO-(CH2)18-CO2H); Aib20; C-terminal NH2
B2: Example 82 (peptide)
peptide: B1 peptide with I12X, X13L, S16K
modifications: Aib2; D-Ile12; K17((2-[2-(2-Amino-ethoxy)-ethoxy]-acetyl)2-(γ-Glu)-CO-(CH2)18-CO2H); Aib20; C-terminal NH2
B3: Example 84 (peptide)
peptide: B1 peptide with X13L, S16K, E24X
modifications: Aib2; K17((2-[2-(2-Amino-ethoxy)-ethoxy]-acetyl)2-(γ-Glu)-CO-(CH2)18-CO2H); Aib20; D-Glu24; C-terminal NH2
B4: Example 130 (peptide)
peptide: B1 peptide with F6X, Y10E, X13L, S16K
modifications: Aib2; αMeF6; K17((2-[2-(2-Amino-ethoxy)-ethoxy]-acetyl)2-(γ-Glu)-CO-(CH2)18-CO2H); Aib20; C-terminal NH2
B5: Example 85 (peptide)
peptide: Y[Aib]EGTFTSDASILLDKK([AEEA-AEEA-γGlu-C20 diacid])AQ[Aib]AFIEYLIEGGPSSGAPPPS-NH2
modifications: N-terminus assumed
SMILES: CC[C@H](C)[C@H](NC(=O)[C@H](CC(C)C)NC(=O)[C@H](Cc1ccc(O)cc1)NC(=O)[C@H](CCC(=O)O)NC(=O)[C@@H](NC(=O)[C@H](Cc1ccccc1)NC(=O)[C@H](C)NC(=O)C(C)(C)NC(=O)[C@H](CCC(N)=O)NC(=O)[C@H](C)NC(=O)[C@H](CCCCNC(=O)COCCOCCNC(=O)COCCOCCNC(=O)CC[C@H](NC(=O)CCCCCCCCCCCCCCCCCCC(=O)O)C(=O)O)NC(=O)[C@H](CCCCN)NC(=O)[C@H](CC(=O)O)NC(=O)[C@H](CC(C)C)NC(=O)[C@H](CC(C)C)NC(=O)[C@@H](NC(=O)[C@H](CO)NC(=O)[C@H](C)NC(=O)[C@H](CC(=O)O)NC(=O)[C@H](CO)NC(=O)[C@@H](NC(=O)[C@H](Cc1ccccc1)NC(=O)[C@@H](NC(=O)CNC(=O)[C@H](CCC(=O)O)NC(=O)C(C)(C)NC(=O)[C@@H](N)Cc1ccc(O)cc1)[C@@H](C)O)[C@@H](C)O)[C@@H](C)CC)[C@@H](C)CC)C(=O)N[C@@H](CCC(=O)O)C(=O)NCC(=O)NCC(=O)N1CCC[C@H]1C(=O)N[C@@H](CO)C(=O)N[C@@H](CO)C(=O)NCC(=O)N[C@@H](C)C(=O)N1CCC[C@H]1C(=O)N1CCC[C@H]1C(=O)N1CCC[C@H]1C(=O)N[C@@H](CO)C(N)=O
B6: Example 86 (peptide)
peptide: Y[Aib]EGTFTSDYSILLDKK([AEEA-AEEA-γGlu-C20 diacid])AQ[Aib]AFIEYLIEAGPSSGAPPPS-NH2
modifications: N-terminus assumed
SMILES: CC[C@H](C)[C@H](NC(=O)[C@H](CC(C)C)NC(=O)[C@H](Cc1ccc(O)cc1)NC(=O)[C@H](CCC(=O)O)NC(=O)[C@@H](NC(=O)[C@H](Cc1ccccc1)NC(=O)[C@H](C)NC(=O)C(C)(C)NC(=O)[C@H](CCC(N)=O)NC(=O)[C@H](C)NC(=O)[C@H](CCCCNC(=O)COCCOCCNC(=O)COCCOCCNC(=O)CC[C@H](NC(=O)CCCCCCCCCCCCCCCCCCC(=O)O)C(=O)O)NC(=O)[C@H](CCCCN)NC(=O)[C@H](CC(=O)O)NC(=O)[C@H](CC(C)C)NC(=O)[C@H](CC(C)C)NC(=O)[C@@H](NC(=O)[C@H](CO)NC(=O)[C@H](Cc1ccc(O)cc1)NC(=O)[C@H](CC(=O)O)NC(=O)[C@H](CO)NC(=O)[C@@H](NC(=O)[C@H](Cc1ccccc1)NC(=O)[C@@H](NC(=O)CNC(=O)[C@H](CCC(=O)O)NC(=O)C(C)(C)NC(=O)[C@@H](N)Cc1ccc(O)cc1)[C@@H](C)O)[C@@H](C)O)[C@@H](C)CC)[C@@H](C)CC)C(=O)N[C@@H](CCC(=O)O)C(=O)N[C@@H](C)C(=O)NCC(=O)N1CCC[C@H]1C(=O)N[C@@H](CO)C(=O)N[C@@H](CO)C(=O)NCC(=O)N[C@@H](C)C(=O)N1CCC[C@H]1C(=O)N1CCC[C@H]1C(=O)N1CCC[C@H]1C(=O)N[C@@H](CO)C(N)=O
B7: Example 55 (peptide)
peptide: H[Aib]EGTFTSDYSI[αMeL]LDEK([AEEA-AEEA-γGlu-C20 diacid])AQHAFIEYLIEGGPSSGAPPPS-NH2
modifications: N-terminus assumed
SMILES: CC[C@H](C)[C@H](NC(=O)[C@H](CC(C)C)NC(=O)[C@H](Cc1ccc(O)cc1)NC(=O)[C@H](CCC(=O)O)NC(=O)[C@@H](NC(=O)[C@H](Cc1ccccc1)NC(=O)[C@H](C)NC(=O)[C@H](Cc1c[nH]cn1)NC(=O)[C@H](CCC(N)=O)NC(=O)[C@H](C)NC(=O)[C@H](CCCCNC(=O)COCCOCCNC(=O)COCCOCCNC(=O)CC[C@H](NC(=O)CCCCCCCCCCCCCCCCCCC(=O)O)C(=O)O)NC(=O)[C@H](CCC(=O)O)NC(=O)[C@H](CC(=O)O)NC(=O)[C@H](CC(C)C)NC(=O)[C@](C)(CC(C)C)NC(=O)[C@@H](NC(=O)[C@H](CO)NC(=O)[C@H](Cc1ccc(O)cc1)NC(=O)[C@H](CC(=O)O)NC(=O)[C@H](CO)NC(=O)[C@@H](NC(=O)[C@H](Cc1ccccc1)NC(=O)[C@@H](NC(=O)CNC(=O)[C@H](CCC(=O)O)NC(=O)C(C)(C)NC(=O)[C@@H](N)Cc1c[nH]cn1)[C@@H](C)O)[C@@H](C)O)[C@@H](C)CC)[C@@H](C)CC)C(=O)N[C@@H](CCC(=O)O)C(=O)NCC(=O)NCC(=O)N1CCC[C@H]1C(=O)N[C@@H](CO)C(=O)N[C@@H](CO)C(=O)NCC(=O)N[C@@H](C)C(=O)N1CCC[C@H]1C(=O)N1CCC[C@H]1C(=O)N1CCC[C@H]1C(=O)N[C@@H](CO)C(N)=O
B8: Example 56 (peptide)
peptide: Y[Aib]EGTFTSDYSI[αMeL]LDEK([AEEA-AEEA-γGlu-C20 diacid])AQHAFIEYLIEGGPSSGAPPPS-NH2
modifications: N-terminus assumed
SMILES: CC[C@H](C)[C@H](NC(=O)[C@H](CC(C)C)NC(=O)[C@H](Cc1ccc(O)cc1)NC(=O)[C@H](CCC(=O)O)NC(=O)[C@@H](NC(=O)[C@H](Cc1ccccc1)NC(=O)[C@H](C)NC(=O)[C@H](Cc1c[nH]cn1)NC(=O)[C@H](CCC(N)=O)NC(=O)[C@H](C)NC(=O)[C@H](CCCCNC(=O)COCCOCCNC(=O)COCCOCCNC(=O)CC[C@H](NC(=O)CCCCCCCCCCCCCCCCCCC(=O)O)C(=O)O)NC(=O)[C@H](CCC(=O)O)NC(=O)[C@H](CC(=O)O)NC(=O)[C@H](CC(C)C)NC(=O)[C@](C)(CC(C)C)NC(=O)[C@@H](NC(=O)[C@H](CO)NC(=O)[C@H](Cc1ccc(O)cc1)NC(=O)[C@H](CC(=O)O)NC(=O)[C@H](CO)NC(=O)[C@@H](NC(=O)[C@H](Cc1ccccc1)NC(=O)[C@@H](NC(=O)CNC(=O)[C@H](CCC(=O)O)NC(=O)C(C)(C)NC(=O)[C@@H](N)Cc1ccc(O)cc1)[C@@H](C)O)[C@@H](C)O)[C@@H](C)CC)[C@@H](C)CC)C(=O)N[C@@H](CCC(=O)O)C(=O)NCC(=O)NCC(=O)N1CCC[C@H]1C(=O)N[C@@H](CO)C(=O)N[C@@H](CO)C(=O)NCC(=O)N[C@@H](C)C(=O)N1CCC[C@H]1C(=O)N1CCC[C@H]1C(=O)N1CCC[C@H]1C(=O)N[C@@H](CO)C(N)=O
B9: Example 192 (peptide)
peptide: YXEGTXTSDASIXLDEKAQXEFIXYLIEGGPSSGAPPPS
modifications: Aib2; αMeF(2F)6; αMeL13; K17((2-[2-(2-Amino-ethoxy)-ethoxy]-acetyl)2-(γ-Glu)-CO-(CH2)18-CO2H); Aib20; D-Glu24; C-terminal NH2
B10: Example 210 (peptide)
peptide: B9 peptide with A10Y, E16X
modifications: Aib2; αMeF(2F)6; αMeL13; Dap16; K17((2-[2-(2-Amino-ethoxy)-ethoxy]-acetyl)2-(γ-Glu)-CO-(CH2)16-CO2H); Aib20; D-Glu24; C-terminal NH2
B11: Example 208 (peptide)
peptide: B9 peptide with A10Y
modifications: Aib2; αMeF(2F)6; αMeL13; K17((2-[2-(2-Amino-ethoxy)-ethoxy]-acetyl)2-(γ-Glu)-CO-(CH2)14-CO2H); Aib20; D-Glu24; C-terminal NH2
B12: Example 209 (peptide)
peptide: B9 peptide with A10Y, E16X
modifications: Aib2; αMeF(2F)6; αMeL13; Dab16; K17((2-[2-(2-Amino-ethoxy)-ethoxy]-acetyl)2-(γ-Glu)-CO-(CH2)16-CO2H); Aib20; D-Glu24; C-terminal NH2
B13: Example 160 (peptide)
peptide: B9 peptide with A10X, E21T
modifications: Aib2; αMeF(2F)6; Aib10; αMeL13; K17((2-[2-(2-Amino-ethoxy)-ethoxy]-acetyl)2-(γ-Glu)-CO-(CH2)18-CO2H); Aib20; D-Glu24; C-terminal NH2

The target in one assay is T1, human GIP receptor. The assay can be described thus: SPA, [125I]-GIP displacement, hGIPR membranes.
Take B1: the Ki was determined as 0.0342 nM. This counts as picomolar.
In the case of B2, the Ki turned out to be 14.9 nM.
For the molecule B3, the Ki was 0.143 nM. Against the preceding molecule, the Ki is about 100-fold lower.
Consider B4, for which the Ki amounted to 0.177 nM.
Molecule B5 gave a Ki of 0.621 nM.
Regarding B6, the Ki turned out to be 0.0401 nM.
Still for that read-out and setting: then B7, with 6.24 nM; and B8, with 0.148 nM; and B9, with 0.118 nM.
For the molecule B10, the Ki worked out at 0.0399 nM. This Ki is about 3-fold lower than that of the molecule before.
Turning to B11, the Ki turned out to be 0.0537 nM.
On the same count and under the same terms, then B12, with 0.0664 nM; and B13, with 5.98 nM.

In another assay the target is T2, human GLP-1 receptor (human, UniProt P43220 24-463).
T2 construct: whole, on cells; Used as crude membranes of stably transfected HEK293 cells; also called hGLP1R; hGLP-1R
In words: SPA, [125I]-GLP-1 displacement, hGLP-1R membranes.
In the case of B1, affinity was put at a Ki of 5.81 nM. This counts as single-digit nanomolar.
Molecule B2 yielded a Ki of 6.82 nM. The Ki values of the last two molecules are within 1.5-fold of each other.
As for B3, the Ki came out at 10.2 nM.
Take B4: the Ki was 3.66 nM. Against the preceding molecule, the Ki is about 2.8-fold lower.
Same read-out and setting: to B5 belongs 1.87 nM; to B6, 3.74 nM; to B7, 7.29 nM.
B8: the Ki came out at 10.3 nM.
In turn, B9 returned a Ki of 2.89 nM.
The same measure, in the same setting: then B10, with 1.58 nM.
The molecule B11 returned a Ki of 2.13 nM. The Ki values of the last two molecules are within 1.5-fold of each other.
B12 had a Ki of 1.43 nM.
On to B13, for which the Ki worked out at 14.4 nM.
